Data on 7 substances can be found in patent US6001657.

For data set [1], the system named is anti-quadruplex monoclonal autoantibody me^v-alphaQ1 (Mus musculus). The experiment in a line: filter. As to conditions: RIFB, Scatchard, TEP buffer 150 mM KCl, 37 C.
Data set [2] shares this test system. In words: FP filter. To be noted: nitrocellulose filter binding (RIFB), Scatchard; TEP buffer 50 mM Tris pH 7.4, 5 mM EDTA, 150 mM KCl, 37 C; Ka 2.7e6 M^-1 in table (text prints 2.7e5).

In turn, TGGGG [d(TG4)4 quadruplex] yielded a dissociation constant (Kd) in data set [1] (Ka 2.5e6 M^-1) of 400 nM. In data set [1] (Ka 3.8e5 M^-1, negative control in screening), “CGCGCGCGCG (double strand) [d(CG5)2 duplex]” came in with a dissociation constant (Kd) of 2600 nM. That is a single-digit micromolar value. Consider poly r(G), for which the Kd in data set [1] (Ka 4.0e5 M^-1) is 2500 nM. With CGCGGGGGCG [d(CGC G4 GCG)4 quadruplex], the Kd in data set [1] (Ka 1.6e6 M^-1) was 630 nM. This lies in the sub-micromolar range. For the substance “GGGGTTTGGGGTTTCCCC [d(G4T3G4T3C4) triplex]”, the Kd in data set [1] (Ka 6.8e5 M^-1) was found to be 1500 nM. This lies in the single-digit micromolar range. As for “CCCCTTTGGGGTTTGGGG [d(C4T3G4T3G4) triplex]”, the Kd in data set [1] (Ka 5.0e5 M^-1) was found to be 2000 nM. In data set [2], “TTGGGGTTGGGGTTGGGGTTGGGG [(TET4)4 quadruplex]” displayed a Kd of 370 nM.

One may read the Kd as a measure of binding affinity in units of concentration. The low end stands for higher affinity, the high end for lower affinity.
